The text below walks through data of the RNAGym collection of RNA variant scans (doi:10.1093/molbev/msab373).

Sequences and labels used below:
B1: Azoarcus group I ribozyme (parent)
chain: GUGCCUUGCGCCGGGAAACCACGCAAGGGAUGGUGUCAAAUUCGGCGAAACCUAAGCGCCCGCCCGGGCGUAUGGCAACGCCGAGCCAAGCUUCGGCGCCUGCGCCGAUGAAGGUGUAGAGACUAGACGGCACCCACCUAAGGCAAACGCUAUGGUGAAGGCAUAGUCCAGGGAGUGGCGAAAGUCACACAAACCGG

This data set covers variants of B1. Description: reverse-splicing fitness (ratio to wild type); higher = more active; in vitro selection; Mg2+ level not given. The gist of the method: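 An in vitro group I ribozyme library with randomized positions was T7-transcribed and gel-purified. In triplicate, 10 pmol RNA in EPPS pH 7.5 was reacted with 50 pmoles of a 30-nt RNA substrate for 1 h at 37 °C across several added MgCl2 levels (1–48 mM), then stopped with EDTA. Products were reverse transcribed from a substrate-complementary primer, PCR-amplified and sequenced (HiSeq 4000). Fitness is a variant's read proportion after selection over that before, normalised to wild type.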
Take A120G A145G C169U U176A: the reverse-splicing fitness was determined as 0.172. For the variant A120G A145G C169U U176C, the reverse-splicing fitness turned out to be 0.199. Then A120G A145G C169U U176G, with 0.0155. Then A120G A145C C150G C169G, with 0.114; and A120G A145C C150G C169U, with 0.0909. As to A120G A145C C150G C169A, the reverse-splicing fitness was 0.0659.

Turning to A120G C150U C169G U176G, the reverse-splicing fitness was 0.00753.

A120G C150U C169G U176C: the reverse-splicing fitness amounted to 0.195. With A120G C150U C169G U176A the figure was 0.157; with A120G A145U C150G, 0.07. As for A120G A145U C150U, the reverse-splicing fitness is 0.384. Then A120G A145U C150A, with 0.0603. A120G A145C C150U: the reverse-splicing fitness was 0.166.

As for A120G A145C C150A, the reverse-splicing fitness came out at 0.0374. On to A120G A145C C150G, for which the reverse-splicing fitness was determined as 0.0854. With A120G A145G C150G C169U U176G, the reverse-splicing fitness was 0.00777. Regarding A120G A145G C150G C169U U176C, the reverse-splicing fitness is 0.0556. Regarding A120G A145G C150G C169U U176A, the reverse-splicing fitness worked out at 0.0263.

In the case of A120G A145G U176C, the reverse-splicing fitness is 0.246. Take A120G A145G U176G: the reverse-splicing fitness turned out to be 0.0157. A120G A145G U176A: the reverse-splicing fitness stood at 0.193. Turning to A120G A145U C150A C169U U176A, the reverse-splicing fitness was 0.0594. As for A120G A145U C150A C169U U176G, the reverse-splicing fitness came out at 0.00749.

For the variant A120G A145U C150A C169U U176C, the reverse-splicing fitness was determined as 0.0534. Consider A120G A145U C169A, for which the reverse-splicing fitness is 0.447. Turning to A120G A145U C169G, the reverse-splicing fitness was 0.618. For A120G A145U C169U, the reverse-splicing fitness is 0.446. For the variant A120G A145G C150G C169G U176A, the reverse-splicing fitness turned out to be 0.0179. As to A120G A145G C150G C169G U176C, the reverse-splicing fitness came out at 0.0152. Take A120G A145G C150G C169G U176G: the reverse-splicing fitness stood at 0.00607. With A120G A145G C169U the figure was 0.441; with A120G A145G C169G, 0.639; with A120G A145G C169A, 0.424.

For the variant A120C C150A C169U, the reverse-splicing fitness was 0.098. Then A120G A145U C150A U176A, with 0.0378.

For the variant A120G A145U C150A U176C, the reverse-splicing fitness amounted to 0.0519. For A120G A145U C150A U176G, the reverse-splicing fitness was 0.00673. With A120G C150G, the reverse-splicing fitness came to 0.0593.

Consider A120G C150U, for which the reverse-splicing fitness worked out at 0.318.

Turning to A120G C150A, the reverse-splicing fitness is 0.0647.

On to A120C C169A, for which the reverse-splicing fitness stood at 0.0364. In the case of A120C C169U, the reverse-splicing fitness came out at 0.435. Then A120C C169G, with 0.029; and A120C C150G U176C, with 0.114. Then A120C C150G U176A, with 0.0876; and A120C C150G U176G, with 0.0145; and A120G A145U C150A C169G U176G, with 0.00649. A120G A145U C150A C169G U176A: the reverse-splicing fitness amounted to 0.0455.

On to A120G A145U C150A C169G U176C, for which the reverse-splicing fitness amounted to 0.061. Take A120U A145C C150G C169A U176C: the reverse-splicing fitness was 0.00228. With A120U A145C C150G C169A U176G the figure was 0.00186; with A120U A145C C150G C169A U176A, 0.00247. Regarding A120G C150A C169G, the reverse-splicing fitness is 0.0903. With A120G C150A C169A the figure was 0.0602; with A120G C150A C169U, 0.071; with A120U A145C C150G C169A, 0.00349. Consider A120U A145C C150G C169G, for which the reverse-splicing fitness was found to be 0.0341. Regarding A120G A145G C150A C169G U176C, the reverse-splicing fitness was 0.0972.

As for A120G A145G C150A C169G U176G, the reverse-splicing fitness stood at 0.00637. Consider A120G A145G C150A C169G U176A, for which the reverse-splicing fitness turned out to be 0.0656. On to A120C C150U, for which the reverse-splicing fitness was found to be 0.723.

On to A120C C150G, for which the reverse-splicing fitness was found to be 0.187. Take A120G A145G C150A C169A U176G: the reverse-splicing fitness worked out at 0.00587. As to A120G A145G C150A C169A U176A, the reverse-splicing fitness came to 0.0345. Take A120G A145G C150A C169A U176C: the reverse-splicing fitness worked out at 0.0558. Turning to A120C C150U C169A U176A, the reverse-splicing fitness was 0.0206. For A120C C150U C169A U176C, the reverse-splicing fitness is 0.017. Regarding A120C C150U C169A U176G, the reverse-splicing fitness is 0.00428. Regarding A120G A145G C150U C169U U176A, the reverse-splicing fitness stood at 0.145.

For the variant A120G A145G C150U C169U U176C, the reverse-splicing fitness was determined as 0.175. Then A120G A145G C150U C169U U176G, with 0.0096; and A120G A145C C150G C169G U176C, with 0.0117; and A120G A145C C150G C169G U176A, with 0.0244. Consider A120G A145C C150G C169G U176G, for which the reverse-splicing fitness turned out to be 0.00456. With A120G A145U C150G C169A U176G the figure was 0.00439.

For the variant A120G A145U C150G C169A U176A, the reverse-splicing fitness worked out at 0.0196. Turning to A120G A145U C150G C169A U176C, the reverse-splicing fitness is 0.0317. For the variant A120G C150U U176C, the reverse-splicing fitness was found to be 0.164.

In the case of A120G C150U U176A, the reverse-splicing fitness was 0.125. For the variant A120G C150U U176G, the reverse-splicing fitness is 0.0157. Turning to A120G A145C C150A C169A U176G, the reverse-splicing fitness turned out to be 0.00472. Then A120G A145C C150A C169A U176A, with 0.0162; and A120G A145C C150A C169A U176C, with 0.0164.

In the case of A120G A145G C150A C169G, the reverse-splicing fitness came to 0.141.
